{"source": "paper PMC8102632", "key": {"[1]": {"target": "Thiomicrospira Cas6-RT-Cas1 fusion protein (Thiomicrospira)", "test": "cryo-EM structure; 50 uM Cas6-RT-Cas1, 50 uM Cas2 and 12.5 uM half-site DNA substrate dialysed into 10 mM HEPES pH 7.5, 5 mM EDTA, 500 mM KCl, 0.5 mM TCEP, 0.5% glycerol; purified over Superose 6 Increase; single particle cryo-EM; no density seen for the DNA"}, "[2]": {"target": "Thiomicrospira Cas6-RT-Cas1 RT-K574A mutant (Thiomicrospira)"}, "[3]": {"target": "Thiomicrospira Cas2 (Thiomicrospira)", "test": "cryo-EM structure; 50 uM Cas6-RT-Cas1, 50 uM Cas2 and 12.5 uM half-site DNA substrate dialysed into 10 mM HEPES pH 7.5, 5 mM EDTA, 500 mM KCl, 0.5 mM TCEP, 0.5% glycerol; purified over Superose 6 Increase; single particle cryo-EM; no density seen for the DNA"}}, "data": [{"substance": "Thiomicrospira Cas6-RT-Cas1 fusion protein (enzyme)", "values": [{"measurement": "stoichiometry N", "setting": "[1]", "result": 2}]}, {"substance": "Thiomicrospira Cas6-RT-Cas1 RT-K574A mutant (enzyme)", "values": [{"measurement": "ligation of ssRNA protospacer into pCRISPR by the mutant Cas6-RT-Cas1—Cas2 complex relative to WT (RT-helix of one protomer with Cas1a of another)", "setting": "[2]", "result": "> 80", "unit": "% reduction"}]}, {"substance": "Thiomicrospira Cas2 (natural protein)", "values": [{"measurement": "stoichiometry N", "setting": "[3]", "result": 2}]}]}
